In patent US20240294622A1 (SUZHOU TRANSCENTA THERAPEUTICS, published 2024) one finds IC50, EC50 and Kd data, which are given here for two molecules.

One may read the IC50 as the concentration that gives 50% inhibition. The EC50 is the concentration needed to bring the measured effect to its halfway point. High values mean lower potency in that assay, low ones higher potency in that assay. One may read the Kd as the equilibrium constant for the complex coming apart. Read a high Kd as lower affinity.

Bounds are passed on as bounds.

In assay [1] the target is T1, HGREM1-His (ACRO) (human, UniProt O60565 25-184).
T1 construct: Lys25-Asp184 of NP_037504 with C-terminal polyhistidine tag (ACRO GR1-H52H3); they are put here; also called hGREM1 (ACRO); human gremlin (ACRO)
T1 sequence: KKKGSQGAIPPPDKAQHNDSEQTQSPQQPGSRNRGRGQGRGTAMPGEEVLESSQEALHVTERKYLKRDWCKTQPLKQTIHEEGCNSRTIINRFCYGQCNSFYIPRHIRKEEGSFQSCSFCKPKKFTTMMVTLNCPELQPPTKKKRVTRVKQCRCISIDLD
Briefly: competition ELISA, Gremlin-his 0.25 ug/ml binding to coated FGFR1-Fc. How it is done: Next, 0.25 μg/ml of gremlin was selected to test the blocking activity. The ability of antibodies to block Gremlin binding to human FGFR1-Fc was examined via ELISA. Plates were coated with recombinant FGFR1-Fc (2 μg/ml) overnight and then serial dilutions of antibodies were incubated with 0.25 μg/ml of human Gremlin-his modified for 1 h at RT before this complex was added to coated plates and allowed to incubate for an additional hour at RT. The plates were then washed and added with anti-his HRP (GenScript). Plates were then developed with a TMB solution and stopped by adding stop solution. The plates were read on a plate reader at 450 nm. […] Humanized anti-GREM1 antibodies provided herein (e.g., Hu14E3, Hu22F1) are expected to show the similar technical effect as their chimeric counterparts in blocking the binding of hGREM1 to FGFR1.
(ELISA stands for enzyme-linked immunosorbent assay.)

Assay [2] concerns the target T2, DAN-his (Sinobiological) (human, UniProt P41271 17-181, limits assumed).
T2 construct: also called DAN (Sinobiological); human DAN-his
T2 sequence (looked up): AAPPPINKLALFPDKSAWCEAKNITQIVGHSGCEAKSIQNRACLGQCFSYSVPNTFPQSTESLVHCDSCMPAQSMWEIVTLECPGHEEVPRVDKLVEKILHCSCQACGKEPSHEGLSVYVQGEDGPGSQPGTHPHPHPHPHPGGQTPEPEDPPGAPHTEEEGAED
The assay is described as follows: ELISA on coated DAN-his; unit from the axis Ab(nM); panel called FIG. 19C in the text. How it is done:
(§1) Clear polystyrene plates (BEAVER) were coated with 100 μl/well of a 0.5 μg/ml human gremlin (ACRO) and DAN (Sinobiological) in high pH coating buffer overnight at 4° C. Then the plates were washed once on an automatic plate washer using PBS+0.1% Tween 20 (Sigma). 100 μl of block solution consisting of PBS+1% BSA+1% normal goat serum+0.5% Tween 20 (Sigma) was added to each well and incubated at room temperature for 2 hours. Then 100 ul of antibodies (hybridoma or chimeric antibody 36F5, chimeric antibody 67G11, chimeric antibody 42B9) in antibody dilution buffer containing PBS+1% BSA+1% normal goat serum+0.01% Tween 20 starting from 2 μg/ml (13.33 nM) and then 4 fold serial dilution were added to each well of the plate and incubated for 1 hours at room temperature. Afterward the plates were washed three times with 200 ul of PBS+0.1% Tween20 followed by adding 100 μl/well 1:10000 Goat anti mouse IgG-HRP or mouse anti-human IgG-HRP (abcam), and incubate for 1 hour at room temperature. They were then washed 3× with PBS+0.1% Tween20. Finally, 100 μl/well of TMB (InnoReagents) was added to each well and after 2 minutes add 50 ul of stop solution to each well. The plates were read on a Multiscan FC microplate reader (Thermo Scientific) at 450 nm.

In assay [3] the target is T1, HGREM1-His (ACRO). The assay is described as follows: ELISA on coated human Gremlin-his; unit from the axis Ab(nM); panel called FIG. 19C in the text. The protocol:
as §1

In assay [4] the target is T2, DAN-his (Sinobiological). Briefly: ELISA on coated DAN-his; unit from the axis label Ab(ug/ml), the table prints none. How it is done: as §1
The target in assay [5] is T1, HGREM1-His (ACRO). The assay is described as follows: ELISA on coated Gremlin-his; unit from the axis label Ab(ug/ml), the table prints none. How it is done: as §1
Assay [6] addresses T2, DAN-his (Sinobiological). The assay is described as follows: blocking ELISA: coated BMP2, antibody pre-incubated with human DAN-his, anti-his HRP; blocked ligand BMP2; unit from the axis Concentration(nM). The protocol:
(§2) Plates were coated with recombinant human BMP2/4 (0.5 μg/ml) overnight. Then the plates were washed once on an automatic plate washer using PBS+0.1% Tween 20 (Sigma). 100 μl of block solution consisting of PBS+1% BSA+1% normal goat serum+0.5% Tween 20 (Sigma) was added to each well and incubated at room temperature for 2 hours. Then the plates were washed three 3 times. Then 55 ul serial dilutions of chimeric antibodies 36F5 and 55 ul […] of human DAN-his in dilution buffer containing PBS+1% BSA+1% normal goat serum+0.01% Tween 20 separately were mixed and incubated for 1 h at RT before 100 ul of this complex was added to coated plates and allowed to incubate for an additional hour at room temperature. The plates were then washed 3 times and added with 100 ul of anti-his HRP (GenScript) in dilution buffer. Plates were then developed with a TMB solution and stopped by adding stop solution. After wash three times with wash buffer, the plates were read on a plate reader at 450 nm. Also, consistent with previous result, besides blocking gremlin activity, 36F5 could block BMP2/4 binding to DAN protein. (FIGS. 20A and 20B).

The target in assay [7] is T2, DAN-his (Sinobiological). The assay is described as follows: blocking ELISA: coated BMP4, antibody pre-incubated with human DAN-his, anti-his HRP; blocked ligand BMP4; unit from the axis Concentration(nM) [Continued]. The protocol:
as §2

The target of assay [8] is T1, HGREM1-His (ACRO). The assay is described as follows: BLI Fortebio, human gremlin-his on NTA biosensor, antibody 100, 50, 25 nM. How it is done:
The affinity of the humanized antibodies were also measured by Fortebio. Human gremlin protein was diluted with kinetics buffer to get a concentration of 2 μg/ml. 0 nM was used as a reference control. Antibodies to be tested were diluted with ForteBio kinetics buffer (PBS pH 7.4, 0.1% BSA+0.002% Tween-20) to a concentration of 100 nM, 50 nM, and 25 nM. Human gremlin-his was immobilized onto NTA biosensor. The baseline was detected for 60 seconds, and then anti-gremlin antibody association was detected for 120 seconds to get the Kₒₙ factor data. Followed by dissociation in kinetic buffer for 90 seconds to get the Koff factor data.

B1: chimeric antibody 36F5 (36F5-chi) (antibody, human IgG1, V domains shown)
VH: QVQLQQSGAELARPGASVKLSCKASGYSFTSSGIGWVKQRSGQGLEWIGEIYPRSGNTYNNEKFKGKATLTADKSSSTVYMELRSLTSEDSAVYFCVREAYSHHYYAMDYWGQGTSVTVFS
VL: DVLMTQTPLSLPVSLGGQASISCRSSQSLLHSNGNTYLEWYLQKPGQSPKLLIYKVSNRFSGVPDRLSGSGSGTDFTLKISRVEAEDLGVYYCFQGSHVPFTFGSGTKLEIN
notes: also called chimeric 36F5
Regarding B1, the results for the 50% inhibitory concentration (IC50) with HGREM1-His (ACRO) [1], with DAN-his (Sinobiological) [6] and with DAN-his (Sinobiological) [7] were 1.37 nM, 3.29 nM and 3.93 nM, respectively. Moreover, the EC50 was 0.0211 nM with DAN-his (Sinobiological) [2], 0.0183 nM with HGREM1-His (ACRO) [3], 0.02 µg/mL in the assay with DAN-his (Sinobiological) [4] and 0.0238 µg/mL with HGREM1-His (ACRO) [5].

B2: humanized anti-gremlin1 antibody 14E3 (variant not stated) (antibody, V domains shown)
VH: QVQLVQSGSELKKPGASVKVSCKASGYTFTTYGMAWMRQAPGQGLEWMGWINTLSGEPTYADDFKGRFVFSLDTSVSTAYLQISSLKAEDTAVYYCAREPMDYWGQGTMVTVSS
VL: DVVMTQSPLSLPVTLGQPASISCKSSQSLLDSDGKTYLSWLQQRPGQSPRRLIYLVSKLDSGVPDRFSGSGSGTDFTLKISRVEAEDVGVYYCWQGAHFPLTFGQGTKLEIK
notes: also called Hu14E3; humanized 14E3
Regarding B2, the Kd in the assay with HGREM1-His (ACRO) [8] is below 1 nM.
